In article PMC11931385, “Structural and functional analysis of cancer-associated missense variants in the retinoblastoma protein pocket domain” (The Journal of Biological Chemistry, 2025):
No end group written: not given here. TMR = tetramethyl rhodamine dye

Legend:
Experiment in all cases: fluorescence polarisation; 25 °C; unlabeled Rb^P titrated against 1.5 nM TMR-E2F1^TD or 7.5 nM TMR-E7^LxCxE; 25 mM Tris pH 8.0, 200 mM NaCl, 1 mM DTT, 0.1% Tween-20; 2 min incubation; quadratic fit; apparent Kd for the variants, Kd for WT
Conditions in all cases: both partners purified
[1] = target: T1, Rb^P R668C (human, UniProt P06400 380-788, R668C)
T1 construct: also called variant 51
T1 sequence (looked up): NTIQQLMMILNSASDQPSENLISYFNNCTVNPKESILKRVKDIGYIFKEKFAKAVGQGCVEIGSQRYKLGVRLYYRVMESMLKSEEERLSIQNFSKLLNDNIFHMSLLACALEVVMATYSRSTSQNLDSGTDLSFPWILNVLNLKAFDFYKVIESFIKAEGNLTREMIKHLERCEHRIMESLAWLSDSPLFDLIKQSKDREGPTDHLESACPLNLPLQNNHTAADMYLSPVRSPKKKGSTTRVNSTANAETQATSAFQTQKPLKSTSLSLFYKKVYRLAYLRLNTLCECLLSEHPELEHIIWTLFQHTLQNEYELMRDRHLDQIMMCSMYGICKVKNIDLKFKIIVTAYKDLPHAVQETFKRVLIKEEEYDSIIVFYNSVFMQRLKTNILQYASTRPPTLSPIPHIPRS

[2] = target: T2, Rb^P R763T (human, UniProt P06400 380-788, R763T)
T2 construct: also called variant 75
T2 sequence (looked up): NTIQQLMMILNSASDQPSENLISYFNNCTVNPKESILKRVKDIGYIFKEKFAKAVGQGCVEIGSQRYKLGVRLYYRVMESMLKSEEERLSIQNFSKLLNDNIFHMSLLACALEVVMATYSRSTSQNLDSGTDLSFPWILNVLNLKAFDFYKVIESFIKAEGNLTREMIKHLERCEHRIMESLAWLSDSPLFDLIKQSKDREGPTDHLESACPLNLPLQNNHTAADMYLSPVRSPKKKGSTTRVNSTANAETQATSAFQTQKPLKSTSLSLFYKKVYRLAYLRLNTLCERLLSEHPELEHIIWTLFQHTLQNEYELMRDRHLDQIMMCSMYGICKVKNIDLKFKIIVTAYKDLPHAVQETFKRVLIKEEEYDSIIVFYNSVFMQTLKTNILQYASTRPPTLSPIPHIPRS

[3] = target: T3, Rb^P S671F (human, UniProt P06400 380-788, S671F)
T3 construct: also called variant 53
T3 sequence (looked up): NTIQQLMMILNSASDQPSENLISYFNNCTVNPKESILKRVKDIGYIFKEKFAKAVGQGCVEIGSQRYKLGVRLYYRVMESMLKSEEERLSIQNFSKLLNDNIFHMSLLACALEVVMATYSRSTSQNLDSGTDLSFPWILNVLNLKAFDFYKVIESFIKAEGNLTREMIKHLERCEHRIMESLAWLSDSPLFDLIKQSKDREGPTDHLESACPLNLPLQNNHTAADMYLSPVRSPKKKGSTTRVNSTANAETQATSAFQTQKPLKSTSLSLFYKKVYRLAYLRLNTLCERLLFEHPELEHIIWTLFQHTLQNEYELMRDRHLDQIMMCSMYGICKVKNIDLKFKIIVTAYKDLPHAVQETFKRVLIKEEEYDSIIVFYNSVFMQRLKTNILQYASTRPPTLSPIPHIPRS

[4] = target: T4, Rb^P L550I (human, UniProt P06400 380-788, L550I)
T4 construct: also called variant 27
T4 sequence (looked up): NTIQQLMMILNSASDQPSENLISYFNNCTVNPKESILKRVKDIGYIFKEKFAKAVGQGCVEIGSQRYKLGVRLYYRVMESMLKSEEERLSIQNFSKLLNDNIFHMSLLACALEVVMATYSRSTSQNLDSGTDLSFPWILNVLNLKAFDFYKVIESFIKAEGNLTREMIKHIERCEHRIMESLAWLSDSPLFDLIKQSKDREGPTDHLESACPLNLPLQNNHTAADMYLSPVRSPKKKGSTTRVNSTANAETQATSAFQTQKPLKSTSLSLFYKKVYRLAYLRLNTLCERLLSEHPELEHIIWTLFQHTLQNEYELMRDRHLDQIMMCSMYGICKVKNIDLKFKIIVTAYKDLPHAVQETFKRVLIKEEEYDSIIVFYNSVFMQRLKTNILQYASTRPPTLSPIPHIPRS

[5] = target: T5, Rb^P S534R (human, UniProt P06400 380-788, S534R)
T5 construct: also called variant 23
T5 sequence (looked up): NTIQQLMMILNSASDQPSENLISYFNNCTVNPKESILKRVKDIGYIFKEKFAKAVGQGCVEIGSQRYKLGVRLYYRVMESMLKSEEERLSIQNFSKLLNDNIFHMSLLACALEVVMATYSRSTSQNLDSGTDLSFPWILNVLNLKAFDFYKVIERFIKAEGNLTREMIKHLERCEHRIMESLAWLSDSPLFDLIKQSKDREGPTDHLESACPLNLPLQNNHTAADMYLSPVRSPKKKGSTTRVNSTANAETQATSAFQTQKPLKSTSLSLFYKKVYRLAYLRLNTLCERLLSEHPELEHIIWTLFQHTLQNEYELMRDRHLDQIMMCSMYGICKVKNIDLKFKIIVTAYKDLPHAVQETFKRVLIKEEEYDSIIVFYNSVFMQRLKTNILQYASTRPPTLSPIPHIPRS

B1: TMR-E2F1^TD, peptide of the E2F1 transactivation domain (peptide)
peptide: {TMR}-GEGIRDLFDCDFGDLTPLD
notes: also called E2F^TD; source: synthetic peptide, bought: GenScript
- Kd [1]: 12 nM
- Kd [2]: 37 nM
- Kd [3]: 24 nM
- Kd [4]: 41 nM
- Kd [5]: 9280 nM

B2: TMR-E7^LxCxE, LxCxE peptide of the E7 oncoprotein from HPV (peptide)
peptide: DLYCYEQLN
modifications: also: TMR label, position not given here
notes: source: synthetic peptide, bought: GenScript
- Kd [1]: 3 nM
- Kd [2]: 21 nM
- Kd [3]: 9 nM
- Kd [4]: 3 nM
- Kd [5]: 4 nM
